B1: CPEB3 Ribozyme (parent)
chain: GGGGGCCACAGCAGAAGCGUUCACGUCGCGGCCCCUGUCAGAUUCUGGUGAAUCUGCGAAUUCUGCUGU

Variants of: B1
Assay: self-cleavage, relative activity (ratio to wild type); higher = more cleavage; co-transcriptional

Variant | self-cleavage
G2U G58U | 0.0822
G2U G58C | 0.0697
G2U G58A | 0.0612
G2U G28A | 0.0437
G2U G28C | 0.0331
G2C U53G | 0.0245
G2C G37U | 0.0045
G2C G37A | 0.0459
G2U U61C | 0.0727
G2C C27A | 0.0594
G2C C27G | 0.106
G2U U62G | 0.0547
G2U C27U | 0.0348
G2U C27G | 0.0366
G2U A15C | 0.085
G2U A15U | 0.0721
G2C C22U | 0.0697
G2C C22A | 0.0368
G2C U21G | 0.0813
G2C U21A | 0.0234
G3A A13G | 0.596
G3A A13U | 0.339
G2C C34U | 0.0646
G2C C34A | 0.0678

Variant | self-cleavage
G2C C45G | 0.0374
G2C C45U | 0.0464
G2C C45A | 0.0472
G2U C34A | 0.0756
G2U C34G | 0.0441
G2C U46G | 0.0683
G2C U46A | 0.0309
G2C U46C | 0.0336
G2C U49C | 0.0424
G2C U49G | 0.0393
G2C U49A | 0.0745
G3A G11C | 0.33
G3A G11U | 0.402
G3A G11A | 0.48
G2U C18G | 0.00659
G2U G25A | 0.0393
G2U G25C | 0.0157
G2U G25U | 0.0175
G2C C32U | 0.0415
G2C C32A | 0.00762
G2C C32G | 0.0507
G3A A42G | 0.584
G3A A42U | 0.394
G3A A42C | 0.338

Variant | self-cleavage
G2C U38G | 0.0453
G2C U38C | 0.0174
G2U C54U | 0.0892
G2U C54G | 0.0751
G2C U64C | 0.0536
G2C U64A | 0.0485
G2C U64G | 0.137
G2C A51G | 0.0786
G2U G5U | 0.0421
G2U C12U | 0.13
G2U C12G | 0.0633
G2U C12A | 0.0547
G2U U43G | 0.0816
G2U U43C | 0.0688
G2U U43A | 0.118
G2U U55A | 0.0595
G2C G58U | 0.0467
G2C G58C | 0.0216
G2U C9G | 0.129
G2U C9A | 0.149
G2C A59U | 0.0322
G2C A59C | 0.027
G2C G25C | 0.0473
G2C G25U | 0.0456

Variant | self-cleavage
G2U G65C | 0.0564
G2U G65U | 0.0743
G2U G41A | 0.0653
G2U G31C | 0.061
G2U G31U | 0.0654
G2U U53C | 0.0669
G2U U53A | 0.0959
G2U U53G | 0.0896
G2U A40C | 0.087
G2U A40U | 0.0492
G3A C29G | 0.122
G3A C29A | 0.149
G3A C29U | 0.145
G2U A60C | 0.0553
G2U A60U | 0.0623
G2C C9A | 0.0938
G2C C9G | 0.123
G2U C22G | 0.039
G2U C22U | 0.039
G2U C22A | 0.0323
G2C C35A | 0.0223
G2C C35G | 0.313
G2U | 0.0871
G3A A51U | 0.651

Variant | self-cleavage
G3A A51C | 0.413
G3A C54U | 0.602
G3A C54A | 0.243
G3A C54G | 0.25
G3A A23G | 0.401
G3A A23C | 0.525
G3A | 0.693
G2C C6G | 0
G2C C6U | 0.0751
G2C C6A | 0.0465
G3A A59U | 0.198
G3A A59G | 0.362
G2C U67G | 0.0872
G2C U67C | 0.106
G2C U67A | 0.0227
G2C C54U | 0.0485
G2C C54A | 0.0299
G2U C32G | 0.0483
G2U C32U | 0.113
G2C G30U | 0.0301
G2C G30A | 0.0388
G3A C24A | 0.153
G3A C24G | 0.0795
G3A C24U | 0.188

Variant | self-cleavage
G2U U38G | 0.0441
G2U U21G | 0.0462
G2U U21A | 0.0838
G2C G28A | 0.0369
G2C G28U | 0.0543
G2C G28C | 0.0457
G2C G41C | 0.0808
G2C G41U | 0.101
G3A A15C | 0.308
G3A A15G | 0.635
G3A A15U | 0.337
G2C G3A | 0.055
G2C G3C | 0.0247
G2C G5A | 0.0455
G2U C35A | 0.256
G2U A23U | 0.133
G2U A23C | 0.0692
G2U G47U | 0.059
G2U G47C | 0.0826
G2U U69G | 0.109
G3A A8U | 0.697
G3A G5U | 0.0857
G3A G5A | 0.101
G3A C66U | 0.724

Variant | self-cleavage
G3A C66G | 0.597
G3A C66A | 0.442
G2C G19C | 0.0249
G2C G19U | 0.0175
G3A A10G | 0.679
G3A A10C | 0.876
G3A A10U | 0.889
G2U C6A | 0.0497
G2U C6U | 0.0652
G2U C6G | 0.0267
G2U U36C | 0.0828
G2U U36A | 0.023
G3A C12A | 0.324
G3A C12U | 0.723
G3A C12G | 0.326
G2C C29U | 0.0639
G2C C29G | 0.0119
G2U G37U | 0.0465
G2U G37A | 0.0373
G2C C33A | 0.0155
G2C C33G | 0.0592
G2C C33U | 0.0465
G2C U43A | 0.0772
G2C U43C | 0.0672

Variant | self-cleavage
G2U A10C | 0.0945
G2C C39U | 0.0154
G3A C34A | 0.516
G3A C34G | 0.256
G2U C33G | 0.066
G2U C33A | 0.0922
G2U C33U | 0.117
G3A A40G | 0.455
G2C U20C | 0.0285
G2C U20A | 0.0496
G2U C39G | 0.045
G2U C39A | 0.0535
G2U C39U | 0.0814
G2U G30U | 0.0322
G2C U44C | 0.0257
G2U G19U | 0.0651
G2U G19A | 0.0693
G2U G19C | 0.0206
G3A G17C | 0.0537
G3A G17U | 0.0783
G3A G17A | 0.0767
G2C A52C | 0.0825
G2U A59C | 0.05
G2U A59U | 0.0606

Variant | self-cleavage
G3A C57A | 0.11
G3A C57U | 0.0942
G3A C57G | 0.175
G2U G48U | 0.0675
G2U G48A | 0.0985
G3A C22G | 0.0453
G3A C22A | 0.0741
G2U U26G | 0.0848
G2U A51G | 0.127
G2U A51U | 0.0841
G2C U55C | 0.0587
G2C U55G | 0.0548
G2U A16U | 0.0525
G2C U62A | 0.0592
G2C U62G | 0.0405
G2U C29G | 0.0442
G2U C29A | 0.0519
G2C G68C | 0.114
G2C G68A | 0.11
G2U G11A | 0.049
G2U G11U | 0.0835
G3A C32G | 0.176
G3A C32A | 0.191
G3A C32U | 0.302

Variant | self-cleavage
G2C U36C | 0.063
G3A G19A | 0.105
G2U G14C | 0.0522
G2U G14U | 0.0888
G2C C12G | 0.0599
G2C C12U | 0.065
G2U G4U | 0.0539
G2U G4C | 0.0426
G2U U46A | 0.0474
G2U U46C | 0.0853
G2C G50C | 0.0266
G2C G50U | 0.0262
G2U G3A | 0.0298
G2U G3C | 0.0704
G2C A60C | 0.0369
G2C A60G | 0.0533
G2C A60U | 0.0243
G2U G50U | 0.0728
G2U G50C | 0.0712
G3A C9A | 0.895
G3A C9G | 0.858
G2C C57U | 0.054
G2C C57G | 0.0289
G2C C57A | 0.036

Variant | self-cleavage
G3A A52G | 0.563
G3A A52U | 0.556
G2U C45U | 0.102
G2U C45G | 0.0316
G2U C45A | 0.0935
G2C G48C | 0.0429
G2C G48U | 0.105
G3A C39U | 0.273
G3A C39A | 0.328
G2C U26C | 0.0734
G2C U26G | 0.0511
G2C U26A | 0.0328
G2U G68C | 0.1
G2U G68U | 0.106
G2U G68A | 0.128
G3A A16U | 0.185
G3A A16C | 0.0704
G2C C18A | 0.0265
G2C C18U | 0.0354
G2U G56A | 0.0814
G2U G56C | 0.0334
G2U G56U | 0.0789
G2C G65C | 0.0537
G2C U61C | 0.048

Variant | self-cleavage
G2C U61A | 0.0082
G2C U61G | 0.0289
G2C G14C | 0.0627
G2C G14A | 0.0455
G2C U69A | 0.111
G2C U69C | 0.147
G2C G4A | 0.0684
G2C G4U | 0.0417
G2C G4C | 0.0427
G2C C7A | 0.0323
G2C C7U | 0.0258
G3A G14C | 0.159
G3A A60U | 0.123
G3A C7U | 0.298
G2C C66U | 0.0685
G2C C66A | 0.052
G3A C63G | 0.317
G3A C63A | 0.331
G2U A8U | 0.0613
G2U A8G | 0.0691
G2U A8C | 0.0912
G3A G4A | 0.204
G3A G4U | 0.0692
G3A G4C | 0.165

Variant | self-cleavage
G3A C18U | 0.349
G2U U64A | 0.0856
G2U C7A | 0.0706
G2U C7G | 0.0573
G2U C7U | 0.0578
G2C G11C | 0.0455
G2C G11U | 0.0219
G2C G11A | 0.0352
G2C G47C | 0.0332
G3A C45U | 0.634
G2C C63G | 0.0678
G3A C35G | 0.0971
G3A C35U | 0.215
G2C G17C | 0.0475
G2C G17A | 0.0551
G2C G31U | 0.0216
G2C G31C | 0.0401
G2C G31A | 0.0545
G2U C24G | 0.0682
G2U C24A | 0.0672
G2U C24U | 0.038
G2U G17A | 0.0534
G2C C24A | 0.0707
G2C C24G | 0.0232

Variant | self-cleavage
G2U A13C | 0.09
G2U A13U | 0.052
G3A C33G | 0.153
G3A C33U | 0.231
G2U C66G | 0.0712
G2U A52C | 0.0652
G2C G56A | 0.014
G2C G56U | 0.0319
G2C G56C | 0.0446
G2U C57A | 0.0471
G2U C57G | 0.0241
G2U U20G | 0.0171
G2U U20C | 0.0329
G2U U67A | 0.127
G2U U67G | 0.116
G2U U67C | 0.107
G2U U44A | 0.0745
G2U U44C | 0.067
G2U U44G | 0.0788
G2U A42C | 0.0887
G2U A42G | 0.0791
G2U A42U | 0.0798

Source: the RNAGym collection of RNA variant scans (doi:10.7554/elife.80360)
